Measurements: patent US20250340661A1 (JIANGSU HENGRUI PHARMACEUTICALS, published 2025)
Residue numbers refer to the chain shown, from its start. Numbers in names are those of the source. Read-outs that look alike come from different tables or passages of the source.

Tests used:
[1] = biological target: T1, human CD40 on the cell surface (human, UniProt P25942 21-277); assay: cell-based or functional assay
[2] = biological target: T1, human CD40 on the cell surface; assay: flow cytometry on Raji cells, AF647 anti-human IgG detection
Experimental: Raji cells are of a tumor cell line that overexpresses human CD40. 2E5 Raji cells were inoculated onto a 96-well plate. 100 μL of a test antibody was added, with the highest final concentration of 100 nM. The antibody was 5-fold diluted to 8 concentrations. The plate was incubated at 4° C. for 1 h. […] The plate was incubated at 4° C. for 30 min. The plate was washed once with wash buffer, and fluorescence intensity was measured using a flow cytometer. The binding EC₅₀ values of the anti-CD40 antibodies for CD40 were calculated. The anti-CD40 antagonistic antibody CFZ533 (i.e., iscalimab, Nova) was used as a positive control, and the heavy and light chain variable region sequences were derived from sequence 5 and sequence 2 of U.S. Pat. No. 8,277,810B, respectively.

[3] = biological target: T1, human CD40 on the cell surface; assay: flow cytometry on Raji cells, Alexa Fluor 488 anti-human IgG (H+L) detection
Experimental: Raji cells were plated at 1.5E5/well, and various concentrations of CD40 antagonistic antibodies were added. The plate was incubated at 4° C. for 1 h. After two washes with FACS buffer (PBS+2% FBS), a secondary antibody (Alexa Flour488 conjugated anti-human IgG (H+L) antibody) was added, and the plate was incubated at 4° C. for 0.5 h.
After two washes with FACS buffer, the fluorescence intensity on the cell surface was measured by flow cytometry (BD FACS Celesta).

[4] = biological target: T1, human CD40 on the cell surface; assay: cell-based or functional assay; remark: listed apart in the source
[5] = biological target: T1, human CD40 on the cell surface; assay: cell-based or functional assay; remark: listed apart in the source
human FcRn antigen = human FcRn antigen (human, UniProt P55899 24-297; P61769 21-119); assay: SPR (Biacore), antibody captured on anti-human Fab chip, human FcRn as analyte, steady state model
Chain of human FcRn antigen (P55899 24-297 limits assumed, chain 1 of 2): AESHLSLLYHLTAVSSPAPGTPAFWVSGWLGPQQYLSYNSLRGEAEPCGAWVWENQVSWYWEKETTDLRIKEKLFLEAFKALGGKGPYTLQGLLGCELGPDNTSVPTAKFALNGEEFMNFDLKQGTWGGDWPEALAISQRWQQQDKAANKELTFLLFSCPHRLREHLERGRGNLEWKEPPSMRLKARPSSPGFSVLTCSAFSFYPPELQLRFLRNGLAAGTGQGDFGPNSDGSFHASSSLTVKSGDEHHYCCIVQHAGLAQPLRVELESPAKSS
Chain of human FcRn antigen (P61769 21-119 limits assumed, chain 2 of 2): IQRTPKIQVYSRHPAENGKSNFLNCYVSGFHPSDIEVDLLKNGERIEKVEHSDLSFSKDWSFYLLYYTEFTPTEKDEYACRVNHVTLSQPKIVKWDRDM
Experimental: The test antibody was affinity-captured on an anti-human Fab chip, and a series of concentrations of human FcRn antigen (purchased from AcroBiosystem) were allowed to flow over the chip surface. Reaction signals where the reactions were in a steady state were detected in real time using a Biacore instrument. The buffer used in the experiment was HBS-EP+10× buffer solution (Cat. #BR-1006-69, GE) diluted to 1× (pH 7.4) with D. I. Water. Fitting was performed on the data obtained from the experiment using a steady state binding model to obtain affinity values. The anti-CD40 antibodies carrying the AAYTE mutation have a higher binding affinity for human FcRn than their parent antibodies.

[6] = biological target: T1, human CD40 on the cell surface; assay: cell-based or functional assay; remark: listed apart in the source
[7] = biological target: T1, human CD40 on the cell surface; assay: cell-based or functional assay; remark: listed apart in the source
[8] = biological target: T1, human CD40 on the cell surface; assay: cell-based or functional assay; remark: listed apart in the source
[9] = biological target: T1, human CD40 on the cell surface; assay: cell-based or functional assay; remark: listed apart in the source
[10] = biological target: T1, human CD40 on the cell surface; assay: cell-based or functional assay; remark: listed apart in the source
[11] = biological target: T1, human CD40 on the cell surface; assay: cell-based or functional assay; remark: listed apart in the source
[12] = biological target: T2, his-tagged human CD40 (h-CD40-his) recombinant protein (human, UniProt P25942 21-193); assay: SPR (Biacore), antibody captured on anti-human Fc chip, His-tagged CD40 as analyte, 1:1 model
T2 construct: Bought from Acrobiosystems, Cat. #CD0-H5228; also called His-tagged human CD40 antigen; not shown: His tag
T2 sequence (P25942 21-193 limits assumed): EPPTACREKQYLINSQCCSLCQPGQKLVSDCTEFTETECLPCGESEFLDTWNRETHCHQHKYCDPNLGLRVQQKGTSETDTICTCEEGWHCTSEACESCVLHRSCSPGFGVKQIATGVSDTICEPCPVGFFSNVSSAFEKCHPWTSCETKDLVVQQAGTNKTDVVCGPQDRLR
Experimental: (§1) The test antibody was affinity-captured on an anti-human Fc chip, and a series of concentrations of His-tagged human or cynomolgus monkey CD40 antigen were allowed to flow over the chip surface. Reaction signals were detected in real time using a Biacore instrument, and thus binding and dissociation curves were obtained. The buffer used in the experiment was HBS-EP+10× buffer solution (Cat. #BR-1006-69, GE) diluted to 1× (pH 7.4) with D. I. Water. Fitting was performed on the data obtained from the experiment using a (1:1) Binding model to obtain affinity values. 9E6-L4H2 and 2F12-L4H2 have similar binding constants for human CD40 to CFZ533, 9E6-L4H2 has a stronger binding affinity for cynomolgus monkey CD40, and 2F12-L4H2 has a slightly weak binding affinity for cynomolgus monkey CD40.

[13] = biological target: T3, his-tagged cynomolgus monkey CD40 (cyno-CD40-his) recombinant protein (cynomolgus monkey); assay: as above
T3 construct: Bought from Acrobiosystems, Cat. #CD0-C52H6
Experimental: as §1

T1 sequence (P25942 21-277): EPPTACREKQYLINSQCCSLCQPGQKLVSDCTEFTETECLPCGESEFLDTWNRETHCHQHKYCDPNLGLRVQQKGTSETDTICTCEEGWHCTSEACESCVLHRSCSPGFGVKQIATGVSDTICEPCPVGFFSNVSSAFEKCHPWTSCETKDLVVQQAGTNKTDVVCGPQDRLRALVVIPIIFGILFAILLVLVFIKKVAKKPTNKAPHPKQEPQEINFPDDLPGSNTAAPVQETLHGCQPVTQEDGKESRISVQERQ

B1: 3F6 human-rabbit chimeric anti-CD40 antibody (antibody, human IgG1, V domains shown)
VH: QSVKESEGGLFKPTDTLTLTCTVSGFSLSSYAISWVRQAPGNGLEWIGAIDRYGTTYYATWAKSRSTITRNTNENTVTLKMTSLTAADTATYFCARGPWYYGGDVAWTGSFDPWGPGTLVTVSS
VL: AQVLTQTASPVSAAVGGTVTISCQSSQSVANNDFLSWYQQKPGQPPKLLIYGASTLASGVPSRFRGNGSGTQFTLTITGMQCDDAATYFCTGGYAGPIYIFGGGTEVVVK
[1]
  reporter gene cell activity IC50 (HEK-Blue CD40L cells, SEAP): 0.378 nM
[2]
  EC50: 1.51 nM

B2: 5A9 human-rabbit chimeric anti-CD40 antibody (antibody, human IgG1, V domains shown)
VH: QSVKESEGGLFKPTDTLTLTCTASRFSLSSYDMSWVRQAPGNGLEWIGAIGGAGGTYYASWAKSRSTITRNTNLNTLTLKMTSLTAADTATYFCARGWTRLDLWGQGTLVTVSS
VL: DIVLTQTASPVSGAVGGTVTINCQSSEDISSNLSWYQQKPGQPPKLLIYAASNLASGVPSRFKGSGSGTEFTLTISDLECADAATYYCQGGYWSGISNFGNGFGGGTEVVVK
[1]
  reporter gene cell activity IC50 (HEK-Blue CD40L cells, SEAP): 0.317 nM
[2]
  EC50: 0.671 nM

B3: 9E6 human-rabbit chimeric anti-CD40 antibody (antibody, human IgG1, V domains shown)
VH: B2 VH with K4R, F11V, A23V, R25G, L77V, T82S
VL: B2 VL with A8P, N22K, S25A, S34A, Y49F, A50P, P59S, S94T, G95S, I96T
[1]
  reporter gene cell activity IC50 (HEK-Blue CD40L cells, SEAP): 0.221 nM
[2]
  EC50: 0.608 nM
[3]
  EC50: 0.895 nM

B4: 2F12 human-rabbit chimeric anti-CD40 antibody (antibody, human IgG1, V domains shown)
VH: QSVKESEGGLFKPKDTLTLTCTVSGFSLSSYGVSWVRQAPGNGLEWIGGIGSDGSAYYASWAKSRATITRDTNLKTVTLEMTSLTAADTATYFCARGGITVYAMWGPGTLVTVSS
VL: AFELTQTPASVEAAMGGTVTIKCQASQSISNGLAWYQQKPGQPPKLLIVGASNLASGVSSRFKGSGSGTEFTLSISDLECADGATYYCQSYFSSSSTVFGGGTEVVVK
notes: Rabbit variable regions joined to human IgG1 constant region with N297A (Eu) and human kappa constant region
[1]
  reporter gene cell activity IC50 (HEK-Blue CD40L cells, SEAP): 0.172 nM
[2]
  EC50: 0.412 nM
[3]
  EC50: 0.479 nM

B5: 5B8 human-rabbit chimeric anti-CD40 antibody (antibody, human IgG1, V domains shown)
VH: B4 VH with K14T, S29N, G49A, D53S, K63R, A66S, K75N, E80K, M104I
VL: AFELTQTPSPVSAAVGGTVTINCQASEDITNGIAWYQQKPGQPPKLLIAGASNLASGVSSRFKGSGSGTEFTLTISDLECDDAATYYCQSYYSSSYTIFGGGTEVVVK
[1]
  reporter gene cell activity IC50 (HEK-Blue CD40L cells, SEAP): 0.203 nM
[2]
  EC50: 0.435 nM

B6: 4F6 human-rabbit chimeric anti-CD40 antibody (antibody, human IgG1, V domains shown)
VH: B4 VH with K14A, G25R, S34T, G49A, D53T, A66S, K75N, E80K, V101A, M104I
VL: AFELTQTPSSVEAAVGGTVTIKCQASQSISNGLAWYQQKPGQPPKLLIAGASNLASGVSSRFKGSGSGIEFILTISDLECADAATYYCQSYYNSFTTVFGGGTEVVVK
[1]
  reporter gene cell activity IC50 (HEK-Blue CD40L cells, SEAP): 0.182 nM
[2]
  EC50: 0.258 nM

B7: humanized anti-CD40 antibody 2F12-L4H2-AAYTE (antibody, human IgG1, kappa, L234A L235A)
heavy: EVTVKESGPVLVKPTETLTLTCTVSGFSLSSYGVSWIRQPPGKALEWLGGIGSDGSAYYASWAKSRLTISRDTNLKQVVLTMTNMDPVDTATYYCARGGITVYAMWGQGTLVTVSSASTKGPSVFPLAPSSKSTSGGTAALGCLVKDYFPEPVTVSWNSGALTSGVHTFPAVLQSSGLYSLSSVVTVPSSSLGTQTYICNVNHKPSNTKVDKKVEPKSCDKTHTCPPCPAPEAAGGPSVFLFPPKPKDTLYITREPEVTCVVVDVSHEDPEVKFNWYVDGVEVHNAKTKPREEQYNSTYRVVSVLTVLHQDWLNGKEYKCKVSNKALPAPIEKTISKAKGQPREPQVYTLPPSREEMTKNQVSLTCLVKGFYPSDIAVEWESNGQPENNYKTTPPVLDSDGSFFLYSKLTVDKSRWQQGNVFSCSVMHEALHNHYTQKSLSLSPGK
light: AFQLTQSPSSLSASVGDRVTITCQASQSISTGLAWYQQKPGKPPKLLIVGASNLASGVPSRFSGSGSGTDFTLTISSLQPEDFATYYCQSYFSSSSTVFGGGTKVEIKRTVAAPSVFIFPPSDEQLKSGTASVVCLLNNFYPREAKVQWKVDNALQSGNSQESVTEQDSKDSTYSLSSTLTLSKADYEKHKVYACEVTHQGLSSPVTKSFNRGEC
notes: light chain unchanged from 2F12-L4H2
[4]
  IC50 (read off the curve), CD40L-induced IL-12/23 p40 secretion by DC cells: ~0.6 nM
[5]
  IC50 (read off the curve), CD40L-induced TNFα secretion by DC cells: ~0.3 nM
Human FcRn antigen
  Kd: 44.2 nM

B8: humanized anti-CD40 antibody 9E6-L4H2 (antibody, human IgG1, kappa, N297A)
heavy: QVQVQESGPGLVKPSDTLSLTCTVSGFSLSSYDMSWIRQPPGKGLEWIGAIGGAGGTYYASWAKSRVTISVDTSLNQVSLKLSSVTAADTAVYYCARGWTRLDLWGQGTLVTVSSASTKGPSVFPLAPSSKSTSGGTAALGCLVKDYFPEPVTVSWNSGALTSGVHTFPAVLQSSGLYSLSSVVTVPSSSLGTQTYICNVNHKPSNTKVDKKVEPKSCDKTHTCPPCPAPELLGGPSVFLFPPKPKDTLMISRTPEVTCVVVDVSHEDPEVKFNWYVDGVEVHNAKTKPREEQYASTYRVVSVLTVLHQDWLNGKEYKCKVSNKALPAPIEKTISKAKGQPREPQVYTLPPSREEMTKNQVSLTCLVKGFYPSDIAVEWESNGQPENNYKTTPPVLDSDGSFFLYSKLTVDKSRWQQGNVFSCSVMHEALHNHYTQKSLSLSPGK
light: DIQLTQSPSFLSASVGDRVTITCQASEDISSNLAWYQQKPGKPPKLLIFPASNLASGVPSRFSGSGSGTEFTLTISSLQPEDFATYYCQGGYWTSTSNFGQGFGGGTKVEIKRTVAAPSVFIFPPSDEQLKSGTASVVCLLNNFYPREAKVQWKVDNALQSGNSQESVTEQDSKDSTYSLSSTLTLSKADYEKHKVYACEVTHQGLSSPVTKSFNRGEC
notes: human IgG1 N297A (Eu) heavy chain, human kappa light chain; 9E6-L4 light chain and 9E6-H2 heavy chain
[6]
  IC50 for the inhibition of CD40 reporter gene cell activity (Assay 2): 0.5 nM
[7]
  B cell activation assay, CD19+CD69+ % IC50: 0.14 nM
  B cell activation assay, CD19+CD69+ MFI IC50: 0.07 nM
[8]
  IC50 in DC cell activation assay system, CD80 MFI: 3.44 nM
  IC50 in DC cell activation assay system, CD86 MFI: 3.72 nM
  IC50 in DC cell activation assay system, IL-12/23 p40: 1.85 nM
  IC50 in DC cell activation assay system, TNFα: 0.7 nM
[9]
  IC50 (read off the curve), CD40L-induced B cell activation (CD19+CD69+ MFI): ~0.2 nM
[10]
  IC50 (read off the curve), CD40L-induced IL-12/23 p40 secretion by DC cells: 1 to 2 nM
[11]
  IC50 (read off the curve), CD40L-induced TNFα secretion by DC cells: ~0.7 nM
[3]
  EC50: 0.87 nM
[12]
  Kd: 0.536 nM
  koff: 0.000221 s⁻¹
  kon: 413000 M⁻¹ s⁻¹
[13]
  Kd: 0.121 nM
  koff: 6.23e-05 s⁻¹
  kon: 514000 M⁻¹ s⁻¹
Human FcRn antigen
  Kd: 293 nM

B9: humanized anti-CD40 antibody 9E6-L4H2-AAYTE (antibody, human IgG1, kappa, L234A L235A)
heavy: QVQVQESGPGLVKPSDTLSLTCTVSGFSLSSYDMSWIRQPPGKGLEWIGAIGGAGGTYYASWAKSRVTISVDTSLNQVSLKLSSVTAADTAVYYCARGWTRLDLWGQGTLVTVSSASTKGPSVFPLAPSSKSTSGGTAALGCLVKDYFPEPVTVSWNSGALTSGVHTFPAVLQSSGLYSLSSVVTVPSSSLGTQTYICNVNHKPSNTKVDKKVEPKSCDKTHTCPPCPAPEAAGGPSVFLFPPKPKDTLYITREPEVTCVVVDVSHEDPEVKFNWYVDGVEVHNAKTKPREEQYNSTYRVVSVLTVLHQDWLNGKEYKCKVSNKALPAPIEKTISKAKGQPREPQVYTLPPSREEMTKNQVSLTCLVKGFYPSDIAVEWESNGQPENNYKTTPPVLDSDGSFFLYSKLTVDKSRWQQGNVFSCSVMHEALHNHYTQKSLSLSPGK
light: B8 light
notes: light chain unchanged from 9E6-L4H2
[9]
  IC50 (read off the curve), CD40L-induced B cell activation (CD19+CD69+ MFI): ~0.2 nM
[10]
  IC50 (read off the curve), CD40L-induced IL-12/23 p40 secretion by DC cells: ~1 nM
[11]
  IC50 (read off the curve), CD40L-induced TNFα secretion by DC cells: ~0.5 nM
Human FcRn antigen
  Kd: 39.8 nM
